Test results as given in article PMC10636135, “Computational design of highly efficient thermostable MHET hydrolases and dual enzyme system for PET recycling” (Communications Biology, 2023).
Substitutions are numbered along the chain they refer to. In names and notes the source's numbering stands.

Tests used:
[1] = substrate: O=C(O)c1ccc(C(=O)OCCO)cc1; experiment: initial rates, TPA by HPLC, Michaelis-Menten fit; assay type: biochemical, Geobacillus stearothermophilus; conditions: 50 mM sodium phosphate, pH 7.5, 50 °C, M3
Description: initial rates, TPA by HPLC, Michaelis-Menten fit on Est30 (1TQH scaffold; wild-type carboxylesterase) | single variants M1 (G130L) and M3 (G130F) (Table S13) had improved catalytic efficiencies

[2] = substrate: O=C(O)c1ccc(C(=O)OCCO)cc1; experiment: initial rates, TPA by HPLC, Michaelis-Menten fit; assay type: biochemical, Geobacillus stearothermophilus; conditions: 50 mM sodium phosphate, pH 7.5, 50 °C, 10 min, 0.5 μM enzyme
Description: initial rates, TPA by HPLC, Michaelis-Menten fit on Est30 (1TQH scaffold; wild-type carboxylesterase)

[3] = substrate: O=C(O)c1ccc(C(=O)OCCO)cc1; experiment: initial rates, TPA by HPLC, Michaelis-Menten fit; assay type: biochemical, Geobacillus stearothermophilus; conditions: 50 mM sodium phosphate, pH 7.5, 50 °C, 10 min, 0.5 μM enzyme; remark: listed apart in the source
[4] = substrate: O=C(O)c1ccc(C(=O)OCCO)cc1; experiment: initial rates, TPA by HPLC, Michaelis-Menten fit; assay type: biochemical, Pseudideonella sakaiensis; conditions: 50 mM sodium phosphate, pH 7.5, 50 °C
[5] = substrate: O=C(O)c1ccc(C(=O)OCCO)cc1; experiment: MHET hydrolysis kinetics; assay type: biochemical, unidentified prokaryotic organism; conditions: conditions in supplement; pH 7.5; 50.0 °C
Description: MHET hydrolysis kinetics on LCC-ICCG | (LCC-ICCG and FAST-PETase) had weak catalytic activities with regard to the hydrolysis of MHET

B1: Est30 (1TQH scaffold; wild-type carboxylesterase) (Geobacillus stearothermophilus; G129F) (protein)
chain: MKIVPPKPFFFEAGERAVLLLHGFTGNSADVRMLGRFLESKGYTCHAPIYKGHGVPPEELVHTGPDDWWQDVMNGYEFLKNKGYEKIAVAGLSLGGVFSLKLGYTVPIEGIVTMCAPMYIKSEETMYEFVLEYAREYKKREGKSEEQIEQEMEKFKQTPMKTLKALQELIADVRDHLDLIYAPTFVVQARHDEMINPDSANIIYNEIESPVKQIKWYEQSGHVITLDQEKDQLHEDIYAFLESLDW
notes: E. coli BL21(DE3), pET-22b(+) NdeI/XhoI, C-terminal His6 tag kept, HisTrap purified
Protein B1 has a Km [1] of 1.12 ± 0.45 mM and a kcat [1] of 0.75 ± 0.05 s⁻¹.

B2: Est30 (1TQH scaffold; wild-type carboxylesterase) (Geobacillus stearothermophilus; G129L) (protein)
chain: B1 chain with F129L
notes: as for B1
Protein B2 has a Km ([2]; M1) of 5.36 ± 1.13 mM, a kcat ([2]; M1) of 2.97 ± 0.21 s⁻¹ and a kcat/Km ([2]; M1) of 550 M⁻¹ s⁻¹.

B3: Est30 (1TQH scaffold; wild-type carboxylesterase) (Geobacillus stearothermophilus; G129F/I170K/M126S) (protein)
chain: B1 chain with M126S, I170K
notes: as for B1
For B3, the Km ([3]; M13) was 2.59 ± 0.41 mM, the kcat ([3]; M13) was 21 ± 0.83 s⁻¹ and the kcat/Km ([3]; M13) was 8110 M⁻¹ s⁻¹.

B4: Est30 (1TQH scaffold; wild-type carboxylesterase) (Geobacillus stearothermophilus) (protein)
chain: B1 chain with F129G
notes: as for B1
With B4 the Km [2] was 8.98 ± 2.49 mM, the kcat [2] was 1.17 ± 0.14 s⁻¹ and the kcat/Km [2] was 130 M⁻¹ s⁻¹.

B5: Est30 (1TQH scaffold; wild-type carboxylesterase) (Geobacillus stearothermophilus; G129L/I170K) (protein)
chain: B1 chain with F129L, I170K
notes: as for B1
B5 showed a Km ([3]; M8 (KL-MHETase)) of 4.56 ± 0.75 mM, a kcat ([3]; M8 (KL-MHETase)) of 21.4 ± 1.12 s⁻¹ and a kcat/Km ([3]; M8 (KL-MHETase)) of 4700 M⁻¹ s⁻¹.

B6: Est30 (1TQH scaffold; wild-type carboxylesterase) (Geobacillus stearothermophilus; G129L/I170K/M126S) (protein)
chain: B1 chain with M126S, F129L, I170K
notes: as for B1
Work on B6 yielded a Km ([3]; M14 (KLS-MHETase)) of 1.73 ± 0.24 mM, a kcat ([3]; M14 (KLS-MHETase)) of 21.8 ± 0.62 s⁻¹ and a kcat/Km ([3]; M14 (KLS-MHETase)) of 12600 M⁻¹ s⁻¹.

B7: Est30 (1TQH scaffold; wild-type carboxylesterase) (Geobacillus stearothermophilus; I170K) (protein)
chain: B1 chain with F129G, I170K
notes: as for B1
For B7, the Km ([3]; M2, substrate range 2-20 mM) was 53.70 ± 34.77 mM, the kcat ([3]; M2, substrate range 2-20 mM) was 36 ± 18.2 s⁻¹ and the kcat/Km ([3]; M2, substrate range 2-20 mM) was 670 M⁻¹ s⁻¹.

B8: FAST-PETase (Pseudideonella sakaiensis; D186H/N233K/R224Q/R280A/S121E) (protein)
chain: QTNPYARGPNPTAASLEASAGPFTVRSFTVSRPSGYGAGTVYYPTNAGGTVGAIAIVPGYTARQSSIKWWGPRLASHGFVVITIDTNSTLDQPESRSSQQMAALRQVASLNGTSSSPIYGKVDTARMGVMGWSMGGGGSLISAANNPSLKAAAPQAPWHSSTNFSSVTVPTLIFACENDSIAPVNSSALPIYDSMSQNAKQFLEIKGGSHSCANSGNSNQALIGKKGVAWMKRFMDNDTRYSTFACENPNSTAVSDFRTANCS
For B8, the Km [4] was 33.87 ± 2.82 mM and the kcat [4] was 2.34 ± 0.14 s⁻¹.

B9: LCC-ICCG (unidentified prokaryotic organism; D238C/F243I/S283C/Y127G) (protein)
chain: QSNPYQRGPNPTRSALTADGPFSVATYTVSRLSVSGFGGGVIYYPTGTSLTFGGIAMSPGYTADASSLAWLGRRLASHGFVVLVINTNSRFDGPDSRASQLSAALNYLRTSSPSAVRARLDANRLAVAGHSMGGGGTLRIAEQNPSLKAAVPLTPWHTDKTFNTSVPVLIVGAEADTVAPVSQHAIPFYQNLPSTTPKVYVELCNASHIAPNSNNAAISVYTISWMKLWVDNDTRYRQFLCNVNDPALCDFRTNNRHCQ
For B9, the Km [5] was 20.13 ± 3.69 mM and the kcat [5] was 1.41 ± 0.13 s⁻¹.
